Changes are numbered by the printed parent chain. Names may count otherwise.
B1: Mycobacterium tuberculosis CrgA (Rv0011c), wild type, full length, with C-terminal His tag (natural protein)
chain: MMPKSKVRKKNDFTVSAVSRTPMKVKVGPSSVWFVSLFIGLMLIGLIWLMVFQLAAIGSQAPTALNWMAQLGPWNYAIAFAFMITGLLLTMRWH
B2: CrgA A78V mutant (natural protein)
chain: B1 chain with A79V
B3: CrgA G44V mutant (natural protein)
chain: B1 chain with G45V
B4: CrgA N74A mutant (natural protein)
chain: B1 chain with N75A
B5: CrgA G39V mutant (natural protein)
chain: B1 chain with G40V

Target: the molecule itself
Experiment: SDS-PAGE

Protein | stoichiometry N | binding result
B1 | 2 | 
B2 |  | binds
B3 |  | binds
B4 |  | binds
B5 |  | binds

— paper PMC11643046 (bioRxiv, 2025)
